# Laboratory results: PMC4237437, “Biochemical and Structural Characterization of Mycobacterial Aspartyl-tRNA Synthetase AspS, a Promising TB Drug Target” (PLoS ONE, 2014)
# Assays:
# [1] = molecular target: T1, Mt-AspS (M. tuberculosis aspartyl-tRNA synthetase) (Mycobacterium tuberculosis, UniProt P9WFW3); test: biochemical
# T1 construct: C-terminally His6-tagged Mt-AspS (pET28b)
# N[C@@H](CC(=O)O)C(=O)O = test: purified protein
# [2] = system: Nc1ncnc2c1ncn2[C@@H]1O[C@H](COP(=O)(O)OP(=O)(O)CP(=O)(O)O)[C@@H](O)[C@H]1O; test: purified protein
# [3] = system: Nc1ncnc2c1ncn2[C@@H]1O[C@H](COP(=O)(O)OP(=O)(O)NP(=O)(O)O)[C@@H](O)[C@H]1O; test: purified protein
# O=P(O)(O)OP(=O)(O)O = test: purified protein
# [4] = molecular target: the molecule itself; test: crystal structure; apo Ms-AspS, 2.4 Å, space group C222(1), one molecule per asymmetric unit; the two monomers of the dimer are related by crystal symmetry; crystals from 30% pentaerythritol ethoxylate, 0.1 M magnesium formate, 0.1 M Tris-HCl pH 8.5
# T1 sequence (P9WFW3 whole entry): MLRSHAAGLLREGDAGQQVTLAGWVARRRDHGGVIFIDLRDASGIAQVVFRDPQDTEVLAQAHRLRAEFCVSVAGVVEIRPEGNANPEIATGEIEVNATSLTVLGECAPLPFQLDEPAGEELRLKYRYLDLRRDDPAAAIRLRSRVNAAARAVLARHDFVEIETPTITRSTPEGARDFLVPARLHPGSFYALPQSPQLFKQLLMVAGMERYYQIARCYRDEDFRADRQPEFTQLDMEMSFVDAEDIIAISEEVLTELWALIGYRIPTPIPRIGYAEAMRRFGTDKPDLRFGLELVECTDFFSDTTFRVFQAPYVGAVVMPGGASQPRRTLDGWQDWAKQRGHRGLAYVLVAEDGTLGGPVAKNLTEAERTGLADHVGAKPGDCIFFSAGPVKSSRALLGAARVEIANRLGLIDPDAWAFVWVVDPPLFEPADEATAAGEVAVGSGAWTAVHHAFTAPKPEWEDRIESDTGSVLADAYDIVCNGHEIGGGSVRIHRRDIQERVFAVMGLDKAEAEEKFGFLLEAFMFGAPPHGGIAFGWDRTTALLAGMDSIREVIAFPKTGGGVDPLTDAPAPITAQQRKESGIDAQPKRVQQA
molecule,measurement,setting,value
"NC(=O)C1CCN(C2=NC(=O)/C(=C\c3ccc(Cl)cc3Cl)S2)CC1 [compound 1, F1673-0402]",IC50,[1],49.9 µM
"CCOC(=O)C1CCN(C2=NC(=O)/C(=C\c3ccc(Cl)cc3)S2)CC1 [compound 2, 6632725]",IC50,[1],59.1 µM
Mt-AspS (M. tuberculosis aspartyl-tRNA synthetase) (Mycobacterium tuberculosis H37Rv),Km,N[C@@H](CC(=O)O)C(=O)O,143.4 ± 18.83 µM
same,Km,[2],98.25 ± 11.23 µM
same,Km,[3],604.7 ± 40.27 µM
same,Km,O=P(O)(O)OP(=O)(O)O,76.42 ± 10.10 µM
"Mycobacterium smegmatis aspartyl-tRNA synthetase AspS (enzyme, UniProt A0QWN3 1-598, looked up, Aspartyl-tRNA synthetase AspS of Mycobacterium smegmatis; The expression and purification protocol is printed only for Mt-AspS (E. coli C41 (DE3), Ni2+ HisTrap); also called Ms-AspS; MsAspS; source: cloned from M. smegmatis genomic DNA into pET28b; dialysed and concentrated by ultrafiltration before crystallisation) MLRTHAAGSLRPADAGQTVTLAGWVARRRDHGGVIFIDLRDASGVSQVVFREGDVLAAAHRLRAEFCVAVTGVVEVRPEGNENPEIPTGQIEVNATELTVLGESAPLPFQLDEQAGEEARLKYRYLDLRREGPGNALRLRSKVNAAARSVLAEHDFVEIETPTLTRSTPEGARDFLVPARLQPGSFYALPQSPQLFKQLLMVAGMERYYQIARCYRDEDFRADRQPEFTQLDMEMSFVEADDVIAISEQVLKAVWATIGYDLPLPLPRISYEEAMRRFGSDKPDLRFGIELVECTEYFKDTTFRVFQAPYVGAVVMPGGASQPRRTLDGWQEFAKQRGHKGLAYVLVGEDGTLGGPVAKNLSDAERDGLVAHVGANPGDCIFFAAGPAKGARALLGATRIEIAKRLDLIDPNAWAFTWVVDFPMFEAADEATAAGDVAVGSGAWTAMHHAFTAPKPDSVDTFDSDPGNALSDAYDIVCNGNEIGGGSIRIHRRDIQERVFAMMGIDHDEAQEKFGFLLDAFSYGAPPHGGIAFGWDRITALLAGVDSIREVIAFPKSGGGVDPLTDAPAPITPQQRKESGIDAKPREDKPKEDAKSKA",stoichiometry N,[4],2
